The data set concerns the molecule itself. In words: native gel or EMSA. On the technique in general: Mobility shift assays separate free from complexed probe on a gel.

Results on 1 protein are retold here after article PMC5881884 (Biochimica et biophysica acta, 2017).

B1: 14-3-3ζ pseudo-WT (C25A, C189A) (natural protein)
chain: MDKNELVQKAKLAEQAERYDDMAAAMKSVTEQGAELSNEERNLLSVAYKNVVGARRSSWRVVSSIEQKTEGAEKKQQMAREYREKIETELRDICNDVLSLLEKFLIPNASQAESKVFYLKMKGDYYRYLAEVAAGDDKKGIVDQSQQAYQEAFEISKKEMQPTHPIRLGLALNFSVFYYEILNSPEKAASLAKTAFDEAIAELDTLSEESYKDSTLIMQLLRDNLTLWTSDTQGDEAEAGEGGEN
As for B1, the stoichiometry N (as a rule, the number of molecules, sites or subunits per partner or assembly) came to 2.
